Columns and labels:
[1] = target: T1, cynomolgus monkey FcγRIIa3 extracellular domain with C-terminal His-tag (cynomolgus monkey); test: SPR (Biacore), KD of SG1 / KD of variant
T1 construct: also called cyno FcgRIIa3; cynoFcγRIIa3
T1 chain: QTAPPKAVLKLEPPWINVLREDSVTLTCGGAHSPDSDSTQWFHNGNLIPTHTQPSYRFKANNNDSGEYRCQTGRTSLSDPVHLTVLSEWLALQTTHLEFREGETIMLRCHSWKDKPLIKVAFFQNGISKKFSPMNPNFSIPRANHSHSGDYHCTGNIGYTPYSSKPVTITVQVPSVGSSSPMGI
Protocol: The kinetic analysis of interactions between these antibodies and FcγR was carried out using BIACORE® T200 or BIACORE® 4000 (GE Healthcare). HBS-EP+ (GE Healthcare) was used as the running buffer, and the measurement temperature was set to 25° C. […] After the measurement, the antibody captured on the chip was washed off by allowing reaction with 10 mM glycine-HCl, pH1.5 and 25 mM NaOH so that the chip was regenerated and used repeatedly. The sensorgrams obtained as measurement results were analyzed by the 1:1 Langmuir binding model using the BIACORE® Evaluation Software to calculate the binding rate constant ka (L/mol/s) and dissociation rate constant kd (1/s), and the dissociation constant KD (mol/L) was calculated from these values. […] Regarding such interactions, KD values were calculated using the following 1:1 binding model described in BIACORE® T100 Software Handbook BR1006-48 Edition AE.

[2] = target: T2, human FcγRIIb extracellular domain, His-tagged (human, UniProt P31994 43-217); test: SPR (Biacore), 25C, FcgR bound per antibody captured
T2 construct: also called human FcgRIIb
T2 sequence: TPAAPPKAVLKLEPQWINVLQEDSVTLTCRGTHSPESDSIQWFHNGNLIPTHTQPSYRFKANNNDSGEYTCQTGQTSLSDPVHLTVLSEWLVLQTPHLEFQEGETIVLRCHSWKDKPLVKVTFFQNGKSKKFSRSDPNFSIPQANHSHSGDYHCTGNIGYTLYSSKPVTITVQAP

[3] = target: T3, human FcγRIIaR extracellular domain, His-tagged (human, UniProt P12318 34-217); test: as above
T3 construct: also called human FcgRIIaR; FcγRIIa type R
T3 chain: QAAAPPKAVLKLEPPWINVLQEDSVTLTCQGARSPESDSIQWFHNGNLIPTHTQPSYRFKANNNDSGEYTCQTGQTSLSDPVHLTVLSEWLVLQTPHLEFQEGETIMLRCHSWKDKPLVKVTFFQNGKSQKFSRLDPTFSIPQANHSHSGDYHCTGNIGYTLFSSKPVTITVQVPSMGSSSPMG

[4] = target: T4, human FcγRIIaH extracellular domain, His-tagged (human, UniProt P12318 34-217); test: as above
T4 construct: also called human FcgRIIaH; FcγRIIa type H
T4 sequence: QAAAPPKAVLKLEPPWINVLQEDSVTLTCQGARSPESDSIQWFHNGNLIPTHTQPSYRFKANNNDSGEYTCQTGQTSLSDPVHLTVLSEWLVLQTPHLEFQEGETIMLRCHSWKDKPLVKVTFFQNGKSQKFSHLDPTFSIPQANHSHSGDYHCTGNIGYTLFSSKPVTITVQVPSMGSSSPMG

[5] = target: T5, human FcγRIIIaV extracellular domain, His-tagged (human, UniProt P08637 17-208); test: as above
T5 construct: also called human FcgRIIIaV
T5 sequence (P08637 17-208 F176V): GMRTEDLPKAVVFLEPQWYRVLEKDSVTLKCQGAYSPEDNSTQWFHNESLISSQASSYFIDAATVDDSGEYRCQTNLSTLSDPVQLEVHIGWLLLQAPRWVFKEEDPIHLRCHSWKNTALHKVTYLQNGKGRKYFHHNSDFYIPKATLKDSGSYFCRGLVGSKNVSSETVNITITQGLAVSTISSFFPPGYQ

B1: M103205H795-MY452/M103202L889-SK1 (antibody, human IgG1, kappa)
heavy: QVTLKESGPVLVKPTETLTLTCTVSGIDLSHDDISWVRQAPGKGLEWVGIISYAGSTYYASWAKGRLTISKDTSKNQVVLTMTNMDPVDTATYYCARGVPAYSHGGDLWGQGTLVTVSSASTKGPSVFPLAPSSKSTSGGTAALGCLVKDYFPEPVTVSWNSGALTSGVHTFPAVLQSSGLYSLSSVVTVPSSSLGTQTYICNVNHKPSNTKVDKKVEPKSCDKTHTCPPCPAQELLTGPSVFLFPPKPKDTLMISRTPEVTCVVVDVSDEDPEVKFNWYVDGVEVHNAKTKPREEQYNSTYRVVSVLTVLHQDWLNGKEYKCKVSNKALPKPIEKTISKAKGQPREPQVYTLPPSREEMTKNQVSLTCLVKGFYPSDIAVEWESNGQPENNYKTTPPVLDSDGSFFLYSKLTVDKSRWQQGNVFSCSVMHEALHNHYTQKSLSLSP
light: DIVMTQSPATLSLSPGERATLSCTSSQSVYHANWLSWFQQKPGQPPKLLIYWASTLAYGVPSRFSGSGSGTDFTLTISSLQPEDAATYYCAGGYGGGRYAFGQGTKVEIKRTVAAPSVFIFPPSDEQLKSGTASVVCLLNNFYPREAKVQWKVDNALQSGNSQESVTEQDSKDSTYSLSSTLTLSKADYEKHKVYACEVTHQGLSSPVTKSFNRGEC
notes: Substitutions in EU numbering on SG1
- KD fold (SG1 = 1) [1]: 2.6 fold

B2: M103205H795-MY468/M103202L889-SK1 (antibody)
chain 1: QVTLKESGPVLVKPTETLTLTCTVSGIDLSHDDISWVRQAPGKGLEWVGIISYAGSTYYASWAKGRLTISKDTSKNQVVLTMTNMDPVDTATYYCARGVPAYSHGGDLWGQGTLVTVSSASTKGPSVFPLAPSSKSTSGGTAALGCLVKDYFPEPVTVSWNSGALTSGVHTFPAVLQSSGLYSLSSVVTVPSSSLGTQTYICNVNHKPSNTKVDKKVEPKSCDKTHTCPPCPNPELLTGPSVFLFPPKPKDTLMISRTPEVTCVVVDVSDEDPEVKFNWYVDGVEVHNAKTKPREEQYNSTYRVVSVLTVLHQDWLNGKEYKCKVSNKALPKPIEKTISKAKGQPREPQVYTLPPSREEMTKNQVSLTCLVKGFYPSDIAVEWESNGQPENNYKTTPPVLDSDGSFFLYSKLTVDKSRWQQGNVFSCSVMHEALHNHYTQKSLSLSP
chain 2: DIVMTQSPATLSLSPGERATLSCTSSQSVYHANWLSWFQQKPGQPPKLLIYWASTLAYGVPSRFSGSGSGTDFTLTISSLQPEDAATYYCAGGYGGGRYAFGQGTKVEIKRTVAAPSVFIFPPSDEQLKSGTASVVCLLNNFYPREAKVQWKVDNALQSGNSQESVTEQDSKDSTYSLSSTLTLSKADYEKHKVYACEVTHQGLSSPVTKSFNRGEC
- KD fold (SG1 = 1) [1]: 3.5 fold

B3: GpH7-B3 G236N / GpL16-k0 (antibody, human IgG1, kappa)
heavy: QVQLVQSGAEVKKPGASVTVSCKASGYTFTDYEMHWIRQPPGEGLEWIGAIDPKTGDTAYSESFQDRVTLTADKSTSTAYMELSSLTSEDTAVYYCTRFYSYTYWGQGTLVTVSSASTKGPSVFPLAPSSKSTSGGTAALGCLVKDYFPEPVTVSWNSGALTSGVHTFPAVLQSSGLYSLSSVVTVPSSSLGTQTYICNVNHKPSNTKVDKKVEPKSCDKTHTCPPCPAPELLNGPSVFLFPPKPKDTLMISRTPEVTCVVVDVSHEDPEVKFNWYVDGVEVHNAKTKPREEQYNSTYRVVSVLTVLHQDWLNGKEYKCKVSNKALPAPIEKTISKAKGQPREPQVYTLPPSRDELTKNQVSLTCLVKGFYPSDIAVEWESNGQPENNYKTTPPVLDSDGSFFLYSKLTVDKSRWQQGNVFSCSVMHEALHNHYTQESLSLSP
light: DIVMTQSPLSLPVTPGEPASISCQASESLVHSNRNTYLHWYLQKPGQSPQLLIYKVSNRFSGVPDRFSGSGSGTDFTLKISRVEAEDVGVYYCSQNTHVPPTFGQGTKVEIERTVAAPSVFIFPPSDEQLKSGTASVVCLLNNFYPREAKVQWKVDNALQSGNSQESVTEQDSKDSTYSLSSTLTLSKADYEKHKVYACEVTHQGLSSPVTKSFNRGEC
notes: also called B3 variant G236N
- Binding to human FcgRs (parent B3 = 100) [2]: 75
- Binding to human FcgRs (parent B3 = 100) [3]: 81
- Binding to human FcgRs (parent B3 = 100) [4]: 54

B4: GpH7-B3 A327I / GpL16-k0 (antibody, human IgG1, kappa)
heavy: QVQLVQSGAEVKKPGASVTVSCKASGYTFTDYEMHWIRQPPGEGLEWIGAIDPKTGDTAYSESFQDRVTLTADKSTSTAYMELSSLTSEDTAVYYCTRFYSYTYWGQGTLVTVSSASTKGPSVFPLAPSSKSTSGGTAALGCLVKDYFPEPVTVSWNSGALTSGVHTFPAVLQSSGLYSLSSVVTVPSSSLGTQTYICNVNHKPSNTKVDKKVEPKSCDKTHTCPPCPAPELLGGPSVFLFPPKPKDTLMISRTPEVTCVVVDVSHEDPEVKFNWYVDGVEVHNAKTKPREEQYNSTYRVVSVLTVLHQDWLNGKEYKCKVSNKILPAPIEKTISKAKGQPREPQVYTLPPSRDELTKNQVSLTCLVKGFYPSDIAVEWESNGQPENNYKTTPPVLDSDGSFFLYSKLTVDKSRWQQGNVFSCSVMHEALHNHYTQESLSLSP
light: DIVMTQSPLSLPVTPGEPASISCQASESLVHSNRNTYLHWYLQKPGQSPQLLIYKVSNRFSGVPDRFSGSGSGTDFTLKISRVEAEDVGVYYCSQNTHVPPTFGQGTKVEIERTVAAPSVFIFPPSDEQLKSGTASVVCLLNNFYPREAKVQWKVDNALQSGNSQESVTEQDSKDSTYSLSSTLTLSKADYEKHKVYACEVTHQGLSSPVTKSFNRGEC
notes: also called B3 variant A327I
- Binding to human FcgRs (parent B3 = 100) [2]: 46
- Binding to human FcgRs (parent B3 = 100) [3]: 12
- Binding to human FcgRs (parent B3 = 100) [4]: 37

B5: GpH7-B3 G237D / GpL16-k0 (antibody, human IgG1, kappa)
heavy: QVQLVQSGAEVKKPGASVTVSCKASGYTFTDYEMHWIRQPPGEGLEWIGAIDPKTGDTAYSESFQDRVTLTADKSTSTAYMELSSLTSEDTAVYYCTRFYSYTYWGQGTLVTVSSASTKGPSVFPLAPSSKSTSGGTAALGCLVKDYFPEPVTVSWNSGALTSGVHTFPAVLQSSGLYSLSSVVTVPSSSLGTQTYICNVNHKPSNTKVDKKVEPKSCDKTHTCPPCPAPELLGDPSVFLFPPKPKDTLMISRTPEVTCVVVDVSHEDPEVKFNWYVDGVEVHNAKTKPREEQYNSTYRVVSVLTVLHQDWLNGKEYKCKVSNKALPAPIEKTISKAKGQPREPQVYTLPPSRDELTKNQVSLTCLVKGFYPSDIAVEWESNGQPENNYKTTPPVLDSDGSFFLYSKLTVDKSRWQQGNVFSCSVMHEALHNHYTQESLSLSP
light: DIVMTQSPLSLPVTPGEPASISCQASESLVHSNRNTYLHWYLQKPGQSPQLLIYKVSNRFSGVPDRFSGSGSGTDFTLKISRVEAEDVGVYYCSQNTHVPPTFGQGTKVEIERTVAAPSVFIFPPSDEQLKSGTASVVCLLNNFYPREAKVQWKVDNALQSGNSQESVTEQDSKDSTYSLSSTLTLSKADYEKHKVYACEVTHQGLSSPVTKSFNRGEC
notes: also called B3 variant G237D
- Binding to human FcgRs (parent B3 = 100) [2]: 95
- Binding to human FcgRs (parent B3 = 100) [5]: 0
- Binding to human FcgRs (parent B3 = 100) [3]: 0
- Binding to human FcgRs (parent B3 = 100) [4]: 74

B6: GpH7-B3 N325E / GpL16-k0 (antibody, human IgG1, kappa)
heavy: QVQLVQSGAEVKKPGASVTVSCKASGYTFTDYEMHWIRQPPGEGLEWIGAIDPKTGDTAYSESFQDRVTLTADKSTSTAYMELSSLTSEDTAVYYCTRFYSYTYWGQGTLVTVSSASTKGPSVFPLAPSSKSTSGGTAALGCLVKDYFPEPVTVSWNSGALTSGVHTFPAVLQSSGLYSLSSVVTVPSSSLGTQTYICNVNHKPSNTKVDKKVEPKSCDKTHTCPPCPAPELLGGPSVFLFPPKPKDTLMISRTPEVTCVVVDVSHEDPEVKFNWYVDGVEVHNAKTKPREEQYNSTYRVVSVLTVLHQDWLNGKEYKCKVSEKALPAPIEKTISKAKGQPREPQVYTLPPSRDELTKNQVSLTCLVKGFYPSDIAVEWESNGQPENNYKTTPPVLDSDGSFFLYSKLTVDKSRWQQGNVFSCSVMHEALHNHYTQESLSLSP
light: DIVMTQSPLSLPVTPGEPASISCQASESLVHSNRNTYLHWYLQKPGQSPQLLIYKVSNRFSGVPDRFSGSGSGTDFTLKISRVEAEDVGVYYCSQNTHVPPTFGQGTKVEIERTVAAPSVFIFPPSDEQLKSGTASVVCLLNNFYPREAKVQWKVDNALQSGNSQESVTEQDSKDSTYSLSSTLTLSKADYEKHKVYACEVTHQGLSSPVTKSFNRGEC
notes: also called B3 variant N325E
- Binding to human FcgRs (parent B3 = 100) [2]: 40
- Binding to human FcgRs (parent B3 = 100) [5]: 4
- Binding to human FcgRs (parent B3 = 100) [3]: 13
- Binding to human FcgRs (parent B3 = 100) [4]: 49

B7: GpH7-B3 N325L / GpL16-k0 (antibody, human IgG1, kappa)
heavy: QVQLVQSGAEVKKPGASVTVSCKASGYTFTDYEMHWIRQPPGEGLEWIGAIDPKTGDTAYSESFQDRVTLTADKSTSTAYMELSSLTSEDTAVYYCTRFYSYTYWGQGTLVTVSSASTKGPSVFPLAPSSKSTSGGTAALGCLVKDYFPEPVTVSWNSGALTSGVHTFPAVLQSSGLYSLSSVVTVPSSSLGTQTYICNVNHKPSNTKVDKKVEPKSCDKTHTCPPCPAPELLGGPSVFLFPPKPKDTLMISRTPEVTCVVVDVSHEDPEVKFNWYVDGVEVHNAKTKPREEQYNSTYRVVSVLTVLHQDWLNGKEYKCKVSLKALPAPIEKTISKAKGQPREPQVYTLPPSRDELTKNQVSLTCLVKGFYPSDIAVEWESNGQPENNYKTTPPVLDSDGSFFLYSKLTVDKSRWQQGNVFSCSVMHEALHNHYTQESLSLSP
light: DIVMTQSPLSLPVTPGEPASISCQASESLVHSNRNTYLHWYLQKPGQSPQLLIYKVSNRFSGVPDRFSGSGSGTDFTLKISRVEAEDVGVYYCSQNTHVPPTFGQGTKVEIERTVAAPSVFIFPPSDEQLKSGTASVVCLLNNFYPREAKVQWKVDNALQSGNSQESVTEQDSKDSTYSLSSTLTLSKADYEKHKVYACEVTHQGLSSPVTKSFNRGEC
notes: also called B3 variant N325L
- Binding to human FcgRs (parent B3 = 100) [5]: 0
- Binding to human FcgRs (parent B3 = 100) [3]: 13
- Binding to human FcgRs (parent B3 = 100) [4]: 93

B8: GpH7-B3 P238E / GpL16-k0 (antibody, human IgG1, kappa)
heavy: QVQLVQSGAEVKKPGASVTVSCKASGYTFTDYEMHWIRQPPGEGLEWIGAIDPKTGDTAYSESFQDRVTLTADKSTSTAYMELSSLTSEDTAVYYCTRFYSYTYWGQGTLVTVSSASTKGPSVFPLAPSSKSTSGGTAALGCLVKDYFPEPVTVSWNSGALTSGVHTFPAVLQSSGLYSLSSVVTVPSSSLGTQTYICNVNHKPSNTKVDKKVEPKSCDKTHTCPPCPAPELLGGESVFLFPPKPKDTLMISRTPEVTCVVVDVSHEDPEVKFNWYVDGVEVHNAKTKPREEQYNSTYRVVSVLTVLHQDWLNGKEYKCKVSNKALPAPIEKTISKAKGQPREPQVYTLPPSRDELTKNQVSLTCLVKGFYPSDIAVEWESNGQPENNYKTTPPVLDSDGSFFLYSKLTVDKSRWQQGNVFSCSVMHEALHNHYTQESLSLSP
light: DIVMTQSPLSLPVTPGEPASISCQASESLVHSNRNTYLHWYLQKPGQSPQLLIYKVSNRFSGVPDRFSGSGSGTDFTLKISRVEAEDVGVYYCSQNTHVPPTFGQGTKVEIERTVAAPSVFIFPPSDEQLKSGTASVVCLLNNFYPREAKVQWKVDNALQSGNSQESVTEQDSKDSTYSLSSTLTLSKADYEKHKVYACEVTHQGLSSPVTKSFNRGEC
notes: also called B3 variant P238E
- Binding to human FcgRs (parent B3 = 100) [5]: 1
- Binding to human FcgRs (parent B3 = 100) [3]: 2
- Binding to human FcgRs (parent B3 = 100) [4]: 21

B9: GpH7-B3 P238Q / GpL16-k0 (antibody, human IgG1, kappa)
heavy: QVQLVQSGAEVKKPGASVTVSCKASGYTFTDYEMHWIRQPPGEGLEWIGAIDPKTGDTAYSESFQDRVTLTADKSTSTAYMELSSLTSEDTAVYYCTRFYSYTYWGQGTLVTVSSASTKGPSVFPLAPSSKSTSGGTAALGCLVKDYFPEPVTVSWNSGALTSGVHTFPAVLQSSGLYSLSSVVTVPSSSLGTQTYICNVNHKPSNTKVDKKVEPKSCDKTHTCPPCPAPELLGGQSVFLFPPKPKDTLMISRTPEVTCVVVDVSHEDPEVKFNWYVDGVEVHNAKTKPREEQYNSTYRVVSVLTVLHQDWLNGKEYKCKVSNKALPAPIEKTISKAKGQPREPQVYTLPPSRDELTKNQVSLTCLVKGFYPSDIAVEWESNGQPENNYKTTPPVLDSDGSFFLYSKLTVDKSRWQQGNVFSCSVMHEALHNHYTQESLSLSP
light: DIVMTQSPLSLPVTPGEPASISCQASESLVHSNRNTYLHWYLQKPGQSPQLLIYKVSNRFSGVPDRFSGSGSGTDFTLKISRVEAEDVGVYYCSQNTHVPPTFGQGTKVEIERTVAAPSVFIFPPSDEQLKSGTASVVCLLNNFYPREAKVQWKVDNALQSGNSQESVTEQDSKDSTYSLSSTLTLSKADYEKHKVYACEVTHQGLSSPVTKSFNRGEC
notes: also called B3 variant P238Q
- Binding to human FcgRs (parent B3 = 100) [2]: 43
- Binding to human FcgRs (parent B3 = 100) [5]: -1
- Binding to human FcgRs (parent B3 = 100) [3]: 4
- Binding to human FcgRs (parent B3 = 100) [4]: 19

B10: GpH7-B3 S267H / GpL16-k0 (antibody, human IgG1, kappa)
heavy: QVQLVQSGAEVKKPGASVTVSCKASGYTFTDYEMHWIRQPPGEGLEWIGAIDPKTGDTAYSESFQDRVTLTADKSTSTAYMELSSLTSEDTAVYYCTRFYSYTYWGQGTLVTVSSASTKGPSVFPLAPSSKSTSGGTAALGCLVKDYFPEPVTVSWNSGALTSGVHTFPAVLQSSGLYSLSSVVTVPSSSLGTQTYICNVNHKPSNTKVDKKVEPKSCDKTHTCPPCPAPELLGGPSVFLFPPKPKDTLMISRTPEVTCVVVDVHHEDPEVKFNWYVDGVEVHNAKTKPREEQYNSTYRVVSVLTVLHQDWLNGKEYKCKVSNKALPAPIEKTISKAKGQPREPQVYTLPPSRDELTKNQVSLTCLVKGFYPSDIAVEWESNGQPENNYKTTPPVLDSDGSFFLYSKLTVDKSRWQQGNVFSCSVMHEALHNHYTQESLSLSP
light: DIVMTQSPLSLPVTPGEPASISCQASESLVHSNRNTYLHWYLQKPGQSPQLLIYKVSNRFSGVPDRFSGSGSGTDFTLKISRVEAEDVGVYYCSQNTHVPPTFGQGTKVEIERTVAAPSVFIFPPSDEQLKSGTASVVCLLNNFYPREAKVQWKVDNALQSGNSQESVTEQDSKDSTYSLSSTLTLSKADYEKHKVYACEVTHQGLSSPVTKSFNRGEC
notes: also called B3 variant S267H
- Binding to human FcgRs (parent B3 = 100) [2]: 42
- Binding to human FcgRs (parent B3 = 100) [5]: 1
- Binding to human FcgRs (parent B3 = 100) [3]: 3
- Binding to human FcgRs (parent B3 = 100) [4]: 27

B11: GpH7-B3 S267L / GpL16-k0 (antibody, human IgG1, kappa)
heavy: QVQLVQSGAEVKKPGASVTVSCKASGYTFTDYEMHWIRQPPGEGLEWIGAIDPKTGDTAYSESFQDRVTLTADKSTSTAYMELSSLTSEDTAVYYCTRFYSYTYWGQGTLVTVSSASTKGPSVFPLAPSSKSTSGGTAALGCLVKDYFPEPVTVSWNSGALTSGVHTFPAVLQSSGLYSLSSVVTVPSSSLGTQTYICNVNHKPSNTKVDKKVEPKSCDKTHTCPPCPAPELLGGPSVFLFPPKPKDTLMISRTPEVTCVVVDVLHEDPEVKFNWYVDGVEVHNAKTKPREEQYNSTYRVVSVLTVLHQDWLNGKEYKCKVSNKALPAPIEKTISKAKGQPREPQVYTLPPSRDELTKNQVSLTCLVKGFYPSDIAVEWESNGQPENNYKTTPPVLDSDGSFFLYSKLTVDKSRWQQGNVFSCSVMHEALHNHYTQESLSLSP
light: DIVMTQSPLSLPVTPGEPASISCQASESLVHSNRNTYLHWYLQKPGQSPQLLIYKVSNRFSGVPDRFSGSGSGTDFTLKISRVEAEDVGVYYCSQNTHVPPTFGQGTKVEIERTVAAPSVFIFPPSDEQLKSGTASVVCLLNNFYPREAKVQWKVDNALQSGNSQESVTEQDSKDSTYSLSSTLTLSKADYEKHKVYACEVTHQGLSSPVTKSFNRGEC
notes: also called B3 variant S267L
- Binding to human FcgRs (parent B3 = 100) [2]: 112
- Binding to human FcgRs (parent B3 = 100) [5]: 2
- Binding to human FcgRs (parent B3 = 100) [3]: 3
- Binding to human FcgRs (parent B3 = 100) [4]: 63

Source: US20250076311A1 (Chugai, published 2025)
